Where no end group is shown, it is not given here. [ ]: non-standard residue; d: D form. pT = C[C@@H](OP(=O)(O)O)[C@H](N)C(=O)O; pS = N[C@@H](COP(=O)(O)O)C(=O)O
T1: human TFIIH p62 residues 1-158 (tandem PH and BSD1 domains) (human, UniProt P32780 1-158)
T1 sequence (looked up): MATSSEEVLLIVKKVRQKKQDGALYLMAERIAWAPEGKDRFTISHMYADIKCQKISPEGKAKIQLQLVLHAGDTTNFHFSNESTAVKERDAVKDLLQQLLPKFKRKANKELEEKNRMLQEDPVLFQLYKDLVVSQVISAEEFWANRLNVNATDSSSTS


Molecular target: T1, human TFIIH p62 residues 1-158 (tandem …)
Test: NMR titration

Binder	binding result
TFIIEα (residues 378-439), acidic domain (domain or fragment, UniProt P29083 378-439, looked up) EEDEEEDDEFEEVADDPIVMVAGRPFSYSEVSQRPELVAQMTPEEKEAYIAMGQRMFEDLFE	binds
EEEEESENDWEEVEELSEP (peptide, UniProt Q01831 124-142, looked up) [XPC (residues 124-142)]	binds

Other lines, results leading:

binding result	Binder
binds	AEEDEDDEDFVEVPEKEGYEP (peptide, UniProt Q2YD98 399-419, looked up) [UVSSA (residues 399-419)]
binds	DDLML[pS]PDDIEQWF[pT]EDPGPDE (peptide, UniProt P04637 41-62, looked up) [Ser46- and Thr55-phosphorylated p53 (residues 41-62)]

— PMC7969019 (Nucleic Acids Research, 2020)
